Substitutions are numbered along the chain they refer to. Several values for one entry are separate records, joined by “and”; a condition that tells them apart may be missing. Equal entries are not always repeated. Bridges are numbered along the chain shown (N, C = ends). Where no end group is shown, it is not given here.
What was measured:
[1] = TICA1 Ala-scan with intact disulfides, activity vs TICA1; conditions: single amino acid substituted by alanine
Description: Every single amino acid was substituted by alanine except for cysteine. […] See also FIG. 6.

h-FXIIa [2] = target: T1, h-FXIIa (human, UniProt P00748 20-615); assay: S2302 hydrolysis by h-FXIIa (5.01 nM); inhibitor kept at -80° C.
T1 construct: also called factor XIIa
T1 sequence (looked up): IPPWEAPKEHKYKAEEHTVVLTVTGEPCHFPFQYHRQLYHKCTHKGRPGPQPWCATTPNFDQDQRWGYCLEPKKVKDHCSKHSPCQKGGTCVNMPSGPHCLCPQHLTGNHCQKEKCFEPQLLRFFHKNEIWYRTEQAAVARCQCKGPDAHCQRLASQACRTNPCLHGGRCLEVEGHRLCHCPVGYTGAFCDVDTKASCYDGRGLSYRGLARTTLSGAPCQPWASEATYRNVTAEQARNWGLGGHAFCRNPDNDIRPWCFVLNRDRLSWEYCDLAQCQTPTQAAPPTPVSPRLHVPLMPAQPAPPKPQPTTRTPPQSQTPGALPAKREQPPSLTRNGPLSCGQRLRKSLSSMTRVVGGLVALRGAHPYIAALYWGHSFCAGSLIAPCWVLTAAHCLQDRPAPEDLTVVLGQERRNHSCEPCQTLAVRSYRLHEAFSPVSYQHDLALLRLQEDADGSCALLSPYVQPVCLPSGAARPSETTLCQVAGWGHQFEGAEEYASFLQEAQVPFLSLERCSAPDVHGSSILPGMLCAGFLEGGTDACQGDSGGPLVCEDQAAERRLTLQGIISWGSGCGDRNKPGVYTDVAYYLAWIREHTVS
Description: (§1) Stock FXIIa was diluted 700× in BSA5. The inhibitor was diluted in BSA5 as indicated. Wells contained 70 μl diluted FXIIa (5 nM final), 70 μl inhibitor and 20 μl S2302 (475 or 462.5 μM final). The reaction was started after 5 min heating on the heating plate with S2302. Filters 405 nm and 490 nm reference. Found ΔmA/min was multiplied by 2.14 to get the figure for a 1 cm path.

h-FXIIa [3] = target: T1, h-FXIIa; assay: S2302 hydrolysis by h-FXIIa (5 nM), fit of residual activity; dissociation constant of the complex
Description: as §1, with “mΔA/min” for “ΔmA/min”
(§2) in which E=[FXIIa], Ki is the dissociation constant, I=[Inhibitor], kcat and Km are Michaelis constants and S=[S2302].

h-FXIIa [4] = target: T1, h-FXIIa; assay: S2302 hydrolysis by h-FXIIa, fit of residual activity
Description: as §1, with “mΔA/min” for “ΔmA/min”
as §2

h-FXIIa [5] = target: T1, h-FXIIa; assay: S2302 hydrolysis by h-FXIIa (5.01 nM); inhibitor 30 min 95° C., against -80° C.
Description: as §1

h-FXIIa [6] = target: T1, h-FXIIa; assay: S2302 hydrolysis by h-FXIIa (5.01 nM); inhibitor kept at -80° C. (reference)
Description: as §1

h-FXIIa [7] = target: T1, h-FXIIa; assay: S2302 hydrolysis by h-FXIIa (5.01 nM); inhibitor at RT during 72 hrs, against -80° C.
Description: as §1

h-FXIIa [8] = target: T1, h-FXIIa; assay: S2302 hydrolysis by h-FXIIa (5.01 nM); inhibitor at RT during 72 hrs
Description: as §1

h-FXIIa [9] = target: T1, h-FXIIa; assay: S2302 hydrolysis by h-FXIIa (5.01 nM); inhibitor 30 min 95° C.
Description: as §1

[10] = target: T2, h-FXIIa (human), P00748; assay: S2302 hydrolysis by h-FXIIa (5.01 nM); inhibitor 30 min 95° C., against -80° C.
T2 chain: T1 sequence (looked up)

[11] = target: T2, h-FXIIa (human), …; assay: S2302 hydrolysis by h-FXIIa (5.01 nM); inhibitor at RT during 72 hrs, against -80° C.
[12] = target: T2, h-FXIIa (human), …; assay: S2302 hydrolysis by h-FXIIa (5.01 nM); inhibitor kept at -80° C. (reference)
[13] = target: T2, h-FXIIa (human), …; assay: S2302 hydrolysis by h-FXIIa (5.01 nM); inhibitor 30 min 95° C.
[14] = target: T2, h-FXIIa (human), …; assay: S2302 hydrolysis by h-FXIIa (5.01 nM); inhibitor at RT during 72 hrs
[15] = target: T2, h-FXIIa (human), …; assay: residual inhibitor activity after 60 minutes at 95° C., calculated from free FXIIa (total 9.33 nM)
[16] = target: T2, h-FXIIa (human), …; assay: FXIIa activity, total FXIIa 9.33 nM, 306 nM TICA1 added after 60 minutes at 95° C.
[17] = target: T2, h-FXIIa (human), …; assay: activity of TICA1 disulfide variants (FIG. 5), reference; assay not named
[18] = target: T2, h-FXIIa (human), …; assay: S2302 hydrolysis by h-FXIIa (5 nM), fit of residual activity; dissociation constant of the complex
[19] = target: T2, h-FXIIa (human), …; assay: S2302 hydrolysis by h-FXIIa, fit of residual activity
[20] = target: T2, h-FXIIa (human), …; assay: S2302 hydrolysis by h-FXIIa (5.01 nM); inhibitor kept at -80° C.
[21] = target: T2, h-FXIIa (human), …; assay: cell-based or functional assay
h-FXIIa (human) = h-FXIIa (human) (UniProt P00748); assay: activity of TICA1 disulfide variants against TICA1 with 3 disulfides (FIG. 5); assay not named
h-FXIIa [22] = target: T1, h-FXIIa; assay: as above
h-FXIIa [23] = target: T1, h-FXIIa; assay: S2302 hydrolysis by F.XIIa; before heating

In the case of “AVCPRILMKCKKDSDCLAECVCLEHGYCG [TICA1 Ala-scan analogue]”, the “Activity vs TICA1” value [1] is reported as 7.5%.

For “RVCARILMKCKKDSDCLAECVCLEHGYCG [TICA1 Ala-scan analogue]”, the “Activity vs TICA1” value [1] was 9.0%.

In the case of “RVCPAILMKCKKDSDCLAECVCLEHGYCG [TICA1 Ala-scan analogue]”, the “Activity vs TICA1” value [1] is reported as 0.009%.

Molecule “squash trypsin inhibitor (STI), the serpin from Cucurbita Maxima seeds” has a Ki (h-FXIIa [2]) of 251 nM, a Ki (h-FXIIa [3]) of 251 nM and a Ki (h-FXIIa [4]) of 251 nM. The Res. Act. (%) (h-FXIIa [5]) was 105%, the Res. Act. (%) (h-FXIIa [6]) was 100% and the Res. Act. (%) (h-FXIIa [7]) was 106%. It also gave a Ki (h-FXIIa [8]) of 267 nM and a Ki (h-FXIIa [9]) of 264 nM.

B1: TICA 1 (peptide)
peptide: RVCPRILMKCKKDSDCLAECVCLEHGYCG
modifications: not checked
Molecule B1 has a Res. Act. (%) [10] of 94%, a Res. Act. (%) [11] of 102% and a Res. Act. (%) [12] of 100%. For the same molecule, the Ki [13] was 24 nM, the Ki [14] was 26 nM and the Residual activity (%) [15] was 81.7%. For the same molecule, the Free FXIIa [16] was 3.93 nM, the activity (%) [17] was 100% and the Ki [18] was 25.5 nM. The Ki [19] was 25.5 nM, the Ki [20] was 26 nM and the Activity of FXIIa (mA/min) [21] was 33.5 mA/min.

B2: TICA1-AAA (peptide)
peptide: RVCPRILMKCKKDSDCLAECVCLEHGYCGAAA
modifications: not checked
Molecule B2 has a Ki [18] of 377 nM.

B3: TICA1 with 2 disulfide bonds (C3-C20, C16-C28) (peptide)
peptide: RVCPRILMKAKKDSDCLAECVALEHGYCG
modifications: disulfide 16-28, 3-20
For B3, the activity (%) (h-FXIIa (human)) was 6.8%.

B4: TICA1 with 1 disulfide bond (C3-C20) (peptide)
peptide: RVCPRILMKAKKDSDALAECVALEHGYAG
modifications: disulfide 3-20
With B4 the “activity (%)” value (h-FXIIa [22]) was 0.003%.

B5: TICA 4 (peptide)
peptide: RVCPKILMECKKDSDCLAECICLEHGYCG
modifications: disulfide (positions not given here)
notes: Synthetic congener
Molecule B5 has a Ki (h-FXIIa [2]) of 1420 nM, a Ki (h-FXIIa [3]) of 1420 nM and a Ki (h-FXIIa [4]) of 1420 nM. The “Res. Act. (%)” value (h-FXIIa [5]) was 94%, the Ki (h-FXIIa [23]) was 4.62 µg/mL and 1.42 µM and the “Res. Act. (%)” value (h-FXIIa [6]) was 100%. The “Res. Act. (%)” value (h-FXIIa [7]) was 98%, the Ki (h-FXIIa [8]) was 1400 nM and the Ki (h-FXIIa [9]) was 1340 nM.

B6: TICA1 with 1 disulfide bond (C10-C22) (peptide)
peptide: RVAPRILMKCKKDSDALAEAVCLEHGYAG
modifications: disulfide 10-22
For B6, the “activity (%)” value (h-FXIIa [22]) was 0.003%.

B7: TICA1 with 2 disulfide bonds (C3-C20, C10-C22) (peptide)
peptide: RVCPRILMKCKKDSDALAECVCLEHGYAG
modifications: disulfide 10-22, 3-20
With B7 the “activity (%)” value (h-FXIIa [22]) was 0.2%.

B8: TICA1 with 2 disulfide bonds (C10-C22, C16-C28) (peptide)
peptide: RVAPRILMKCKKDSDCLAEAVCLEHGYCG
modifications: disulfide 10-22, 16-28
In the case of B8, the “activity (%)” value (h-FXIIa [22]) is reported as 0.3%.

B9: TICA 2 (peptide)
peptide: RVCPRILMECKKDSDCLAECVCLEHGYCG
modifications: disulfide (positions not given here)
notes: Synthetic, folded peptide
For B9, the Ki (h-FXIIa [2]) was 109 nM, the Ki (h-FXIIa [3]) was 109 nM and the Ki (h-FXIIa [4]) was 109 nM. For the same molecule, the “Res. Act. (%)” value (h-FXIIa [5]) was 99%, the Ki (h-FXIIa [23]) was 0.355 µg/mL and 109 nM and the “Res. Act. (%)” value (h-FXIIa [6]) was 100%. For the same molecule, the “Res. Act. (%)” value (h-FXIIa [7]) was 105%, the Ki (h-FXIIa [8]) was 114 nM and the Ki (h-FXIIa [9]) was 108 nM.

B10: TICA1 with 1 disulfide bond (C16-C28) (peptide)
peptide: RVAPRILMKAKKDSDCLAEAVALEHGYCG
modifications: disulfide 16-28
In the case of B10, the “activity (%)” value (h-FXIIa [22]) is reported as 0.006%.

B11: PCTI (peptide)
peptide: RVCGIGPRPRLPWPRILMKCKKDSDCLAECVCLEHGYCG
modifications: not checked
For B11, the Ki [18] was 469000 nM.

B12: AAA-TICA1 (peptide)
peptide: AAARVCPRILMKCKKDSDCLAECVCLEHGYCG
modifications: not checked
B12 gave a Ki [18] of 104 nM.

B13: TICA 3 (peptide)
peptide: B12 peptide with A1H, A2E, A3E
notes: Synthetic congener; also called HEE-TICA1
B13 showed a Ki (h-FXIIa [2]) of 3090 nM, a Ki (h-FXIIa [3]) of 3090 nM and a Ki (h-FXIIa [4]) of 3090 nM. For the same molecule, the “Res. Act. (%)” value (h-FXIIa [5]) was 103%, the Ki (h-FXIIa [23]) was 10.1 µg/mL and 3.09 µM and the “Res. Act. (%)” value (h-FXIIa [6]) was 100%. For the same molecule, the “Res. Act. (%)” value (h-FXIIa [7]) was 101%, the Ki (h-FXIIa [8]) was 3130 nM and the Ki (h-FXIIa [9]) was 3180 nM.

B14: TICA 5 (peptide)
peptide: HEERVCPKILMECKKDSDCLAECICLEHGYCG
notes: Synthetic congener; also called HEE-TICA4
In the case of B14, the Ki (h-FXIIa [2]) is reported as 171000 nM, the Ki (h-FXIIa [3]) is reported as 171000 nM and the Ki (h-FXIIa [4]) is reported as 171000 nM. For the same molecule, the “Res. Act. (%)” value (h-FXIIa [5]) was 105%, the Ki (h-FXIIa [23]) was 556 µg/mL and 171 µM and the “Res. Act. (%)” value (h-FXIIa [6]) was 100%. The “Res. Act. (%)” value (h-FXIIa [7]) was 96%, the Ki (h-FXIIa [8]) was 165000 nM and the Ki (h-FXIIa [9]) was 179000 nM.
